In patent publication US20200148774A1:

Target: hCD3ε 1-27 Fc (human)
Test: SPR (Biacore)

hCD3ε 1-27 Fc (human), sequence (chain, as listed by the source): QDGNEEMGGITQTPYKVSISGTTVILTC

Kd	Binder
1 nM	38E4v1 (antibody, V domains shown) VH: EVQLVQSGAEVKKPGASVKVSCKASGFTFTSYYIHWVRQAPGQGLEWIGWIYPENDNTKYNEKFKDRVTITADTSTSTAYLELSSLRSEDTAVYYCARDGYSRYYFDYWGQGTLVTVSS VL: DIVMTQSPDSLAVSLGERATINCKSSQSLLNSRTRKNYLAWYQQKPGQSPKLLIYWTSTRKSGVPDRFSGSGSGTDFTLTISSLQAEDVAVYYCKQSFILRTFGQGTKVEIK
13 nM	40G5c (antibody, V domains shown) VH: EVQLVQSGAEVKKPGASVKVSCKASGYTFTNYYIHWVRQAPGQGLEWIGWIYPGDGNTKYNEKFKGRATLTADTSTSTAYLELSSLRSEDTAVYYCARDSYSNYYFDYWGQGTLVTVSS VL: DIVMTQSPDSLAVSLGERATINCKSSQSLLNSRTRKNYLAWYQQKPGQPPKLLIYWASTRESGVPDRFSGSGSGTDFTLTISSLQAEDVAVYYCTQSFILRTFGQGTKVEIK
